Reference: publication PMC3084833

Legend:
[1] = molecular target: ΔCT-PxxP bestrophin-1 (human bestrophin-1 lacking the C-terminal proline-rich region between 462 and 575) (human) (UniProt O76090); assay: co-IP; HEK-293 cells co-transfected with wild-type or ΔCTPxxP bestrophin-1 and β3- or His-tagged β4-subunits; IP with anti-bestrophin-1 antibody, blot anti-β3, or IP with anti-His antibody, blot anti-bestrophin-1; relative co-precipitation efficiency by densitometry of lysate, precipitate and non-bound fraction
[2] = molecular target: calcium channel, voltage-dependent, β4-subunit, His6-tagged (rat, β4-pCDNA3) (Rattus norvegicus) (UniProt D4A055); assay: as above

co-precipitation efficiency [1] [%] | co-precipitation efficiency [2] [%] | Substance
4 |  | calcium channel, voltage-dependent, β3-subunit (rat, untagged, β3-pCMV) (from UniProt P54287 1-484) (natural protein)
 | 4 | ΔCT-PxxP bestrophin-1 (human bestrophin-1 lacking the C-terminal proline-rich region between 462 and 575) (from UniProt O76090-1 1-585) (natural protein)
